Measured values as given in patent US20120134982A1 (published 2012).

Legend:
[1] = molecular target: human TNFR1, soluble recombinant protein (human) (UniProt P19438); experiment: phage ELISA on 1 nM TNFR1 coat, anti-M13-HRP; phage after 100 ug/ml trypsin 1 h RT; phage input 2.26E+10
recombinant human VEGF = molecular target: T1, recombinant human VEGF (human, UniProt P15692-4 27-191, biotinylated where used on streptavidin or neutravidin surfaces); experiment: RBA assay (column 'Activity (nM)'); taken to be of the Fc fusion; competitor VEGFR2-Fc
T1 construct: also called hVEGF; VEGFA
T1 sequence (P15692 other isoform, or with tags, fused parts or gaps limits assumed): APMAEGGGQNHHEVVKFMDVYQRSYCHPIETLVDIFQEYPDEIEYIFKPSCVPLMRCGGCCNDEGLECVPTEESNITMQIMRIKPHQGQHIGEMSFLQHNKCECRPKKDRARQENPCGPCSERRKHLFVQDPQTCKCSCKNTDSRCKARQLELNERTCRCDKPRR

TNFR1-FC fusion [2] = molecular target: T2, TNFR1-FC fusion (human, UniProt P19438 30-211, limits assumed); experiment: RBA assay (column 'Activity (nM)'); taken to be of the Fc fusion; competition with TNF-alpha
T2 construct: not shown: Fc part, not described further
T2 sequence (looked up): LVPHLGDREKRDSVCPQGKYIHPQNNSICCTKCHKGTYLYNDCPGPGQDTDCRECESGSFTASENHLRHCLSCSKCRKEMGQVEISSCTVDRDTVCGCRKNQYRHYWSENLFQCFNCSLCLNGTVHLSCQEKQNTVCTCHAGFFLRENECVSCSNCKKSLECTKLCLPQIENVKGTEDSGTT

TNFR1-FC fusion [3] = molecular target: T2, TNFR1-FC fusion; experiment: TNFR-1 receptor binding assay: inhibition of TNF-alpha binding to TNFR1; unstressed sample (T0)
TNFR1-FC fusion [4] = molecular target: T2, TNFR1-FC fusion; experiment: TNFR-1 receptor binding assay: inhibition of TNF-alpha binding to TNFR1; after 7 days at 50 °C, concentration assumed from 1 mg/ml
TNFR1-FC fusion [5] = molecular target: T2, TNFR1-FC fusion; experiment: TNFR-1 receptor binding assay: inhibition of TNF-alpha binding to TNFR1; after 14 days at 50 °C, concentration assumed from 1 mg/ml

In the case of DOM1h-131, the phage ELISA signal [1] is reported as 0.337.

B1: DMS1546 (DOM15-10 Fc fusion) (Fc fusion)
chain: DIQMTQSPSSLSASVGDRVTITCRASQWIGPELSWYQQKPGKAPKLLIYHTSILQSGVPSRFSGSGSGTDFTLTISSLQPEDFATYYCQQYMFQPRTFGQGTKVEIRR
notes: VK dAb fused to human IgG1 Fc; dimeric Fc fusion format; not shown: short linker and human IgG1 Fc
With B1 the EC50 (recombinant human VEGF) was 0.913 nM.

B2: DMS1544 (DOM1h-131-206 Fc fusion) (Fc fusion)
chain: EVQLLESGGGLVQPGGSLRLSCAASGFTFAHETMVWVRQAPGKGLEWVSHIPPDGQDPFYADSVKGRFTISRDNSKNTLYLQMNSLRAEDTAVYHCALLPKRGPWFDYWGQGTLVTVSS
notes: dAb fused to human IgG1 Fc; dimeric Fc fusion format; not shown: short linker and human IgG1 Fc
B2 showed an EC50 (TNFR1-FC fusion [2]) of 0.047 nM.

B3: DOM1h-131-511 (other)
VH: EVQLLESGGGLVQPGGSLRLSCAASGFTFAHETMVWVRQAPGKGLEWVSHIPPVGQDPFYADSVKGRFTISRDNSKNTLYLQMNSLRAEDTAVYYCALLPKRGPWFDYWGQGTLVTVSS
notes: Anti-TNFR1 domain antibody (dAb, immunoglobulin single variable domain, VH), tested as soluble monomer; also called GSK1995056A
With B3 the “IC50 (read off the curve)” value (TNFR1-FC fusion [3]) was ~0.1 nM.

B4: DOM1h-131-206 (other)
VH: EVQLLESGGGLVQPGGSLRLSCAASGFTFAHETMVWVRQAPGKGLEWVSHIPPDGQDPFYADSVKGRFTISRDNSKNTLYLQMNSLRAEDTAVYHCALLPKRGPWFDYWGQGTLVTVSS
notes: also called GSK1995057A
With B4 the “IC50 (read off the curve)” value (TNFR1-FC fusion [4]) was ~0.1 nM and the “IC50 (read off the curve)” value (TNFR1-FC fusion [5]) was ~0.1 nM.
